Several values for one entry are separate records, joined by “and”; a condition that tells them apart may be missing. Identical values can stand only once.
Key:
[1] = target: PX domain of SNX6 (SNX6^PX) (UniProt Q9UNH7); assay: ITC; S1B Fig: approximately 2–3 mM of CI-MPR (aa21–48) peptide titrated into approximately 100–300 μM of SNX5^PX, SNX6^PX or SNX32^PX; 100 mM HEPES pH 7.5, 300 mM NaCl, 2 mM βME, 25°C; one set of sites model; single values of triplicates
[2] = target: PX domain of SNX32 (SNX32^PX); assay: as above
[3] = target: PX domain of SNX5 (SNX5^PX) (UniProt Q9Y5X3); assay: as above
PX domain of SNX5 (SNX5^PX), sequence (Q9Y5X3 25-172): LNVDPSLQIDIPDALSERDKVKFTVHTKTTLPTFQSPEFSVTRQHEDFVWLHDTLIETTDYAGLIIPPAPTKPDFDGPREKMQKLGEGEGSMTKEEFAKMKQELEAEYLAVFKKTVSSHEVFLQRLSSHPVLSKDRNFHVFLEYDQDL

[4] = target: PX domain of SNX5 (SNX5^PX) (UniProt Q9Y5X3); assay: ITC; S4C Fig: approximately 0.5–1 mM of CI-MPR (aa21–48) WT or loop-deletion peptides titrated into SNX5^PX (50 μM); 100 mM HEPES pH 7.5, 300 mM NaCl, 2 mM βME, 25°C; one set of sites model; single values of triplicates
[5] = target: PX domain of SNX5 (SNX5^PX) (UniProt Q9Y5X3); assay: ITC; Fig 2B: CI-MPR (aa21–48) WT or alanine mutants titrated into SNX5^PX; 100 mM Hepes pH 7.5, 300 mM NaCl, 2 mM βME, 25°C; single values of triplicates
[6] = target: PX domain of SNX5 (SNX5^PX) (UniProt Q9Y5X3); assay: ITC; Fig 1D: approximately 2–3 mM of peptides titrated into SNX5^PX (300 μM); 100 mM HEPES pH 7.5, 300 mM NaCl, 2 mM βME, 25°C; one set of sites model; single values of triplicates
[7] = target: SNX5^PX (UniProt Q9Y5X3); assay: ITC; loop length: approximately 0.5–1 mM peptide titrated into SNX5^PX (50 μM); 100 mM HEPES pH 7.5, 300 mM NaCl, 2 mM βME, 25°C (S4C Fig)
SNX5^PX, sequence (Q9Y5X3 20-180): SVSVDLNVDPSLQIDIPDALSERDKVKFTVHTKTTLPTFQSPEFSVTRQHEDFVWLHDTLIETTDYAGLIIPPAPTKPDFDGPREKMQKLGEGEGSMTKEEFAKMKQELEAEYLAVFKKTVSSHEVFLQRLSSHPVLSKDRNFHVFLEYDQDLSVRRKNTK

[8] = target: SNX3-retromer complex (Retromer + SNX3) (UniProt Q96QK1); assay: ITC; approximately 2–3 mM peptide titrated into SNX5^PX (300 μM) or the SNX3-retromer complex (10 μM Retromer + 100 μM SNX3); 100 mM HEPES pH 7.5, 300 mM NaCl, 2 mM βME, 25°C; one set of sites model (Fig 1D, 1E, 2B)
[9] = target: SNX5^PX (UniProt Q9Y5X3); assay: as above
[10] = target: SNX6^PX (UniProt Q9UNH7); assay: ITC; approximately 2–3 mM CI-MPR (aa21–48) titrated into approximately 100–300 μM SNX5^PX, SNX6^PX or SNX32^PX; 100 mM HEPES pH 7.5, 300 mM NaCl, 2 mM βME, 25°C (S1B Fig)
[11] = target: SNX32^PX; assay: as above
[12] = target: SNX5^PX (UniProt Q9Y5X3); assay: as above

PX domain of SNX6 (SNX6^PX), sequence (Q9UNH7 26-173): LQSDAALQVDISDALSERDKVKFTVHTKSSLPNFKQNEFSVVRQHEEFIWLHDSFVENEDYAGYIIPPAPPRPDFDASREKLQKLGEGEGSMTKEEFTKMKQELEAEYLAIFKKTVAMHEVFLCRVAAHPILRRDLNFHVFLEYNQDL

Substance	Kd [1]	Kd [2]	Kd [3]	Kd [4]	Kd [5]	Kd [6]	Kd [7] [µM]	Kd [8] [µM]	Kd [9] [µM]	Kd [10] [µM]	Kd [11] [µM]	Kd [12] [µM]
CI-MPR (aa21–48) peptide, wild type	44 µM and 36 µM and 28 µM	18 µM and 15 µM and 21 µM	22 µM and 17 µM and 15 µM	9 µM and 26 µM and 19 µM	18 µM and 11 µM and 25 µM	13 µM and 22 µM and 19 µM						
CI-MPR peptide (aa21–48)							18	> 400	18	36	18	18
